Measurements taken from article PMC6045459 (Nature structural & molecular biology, 2018).

Key:
[1] = target: NUDT16TI (NUDT16 Tudor-interacting), purified alone (UniProt Q96DE0); assay: ITC
NUDT16TI K5S = NUDT16TI K5S (UniProt Q96DE0); assay: ITC
[2] = target: NUDT16TI with deletion of His105 (UniProt Q96DE0); assay: ITC
AUC = target: the molecule itself; assay: AUC
[3] = target: TIRR (residues 6-211), untagged (human, UniProt Q9BRJ7 6-211); assay: crystal structure
TIRR (residues 6-211), untagged, sequence (Q9BRJ7 6-211): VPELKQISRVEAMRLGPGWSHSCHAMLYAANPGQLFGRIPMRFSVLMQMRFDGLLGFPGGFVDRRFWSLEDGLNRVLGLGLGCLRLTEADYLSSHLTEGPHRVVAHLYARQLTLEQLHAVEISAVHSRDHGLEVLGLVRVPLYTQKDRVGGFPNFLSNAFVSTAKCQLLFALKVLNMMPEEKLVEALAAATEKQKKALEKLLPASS

Molecule: 53BP1-Tudor (residues 1484-1603) (from UniProt Q12888 1484-1603) (domain or fragment)
- Kd [1]: 1200 nM
- fold increase of Kd with excess IMP against no IMP [1]: 3 fold
- fold decrease in affinity against NUDT16TI (NUDT16TI K5S): 14 fold
- fold decrease in affinity against NUDT16TI [2]: 38 fold

B1: 53BP1 (residues 1204-1603) (domain or fragment, human, UniProt Q12888 1204-1603, looked up)
chain: EKPVSAPGDDTESLHSQGEEEFDMPQPPHGHVLHRHMRTIREVRTLVTRVITDVYYVDGTEVERKVTEETEEPIVECQECETEVSPSQTGGSSGDLGDISSFSSKASSLHRTSSGTSLSAMHSSGSSGKGAGPLRGKTSGTEPADFALPSSRGGPGKLSPRKGVSQTGTPVCEEDGDAGLGIRQGGKAPVTPRGRGRRGRPPSRTTGTRETAVPGPLGIEDISPNLSPDDKSFSRVVPRVPDSTRRTDVGAGALRRSDSPEIPFQAAAGPSDGLDASSPGNSFVGLRVVAKWSSNGYFYSGKITRDVGAGKYKLLFDDGYECDVLGKDILLCDPIPLDTEVTALSEDEYFSAGVVKGHRKESGELYYSIEKEGQRKWYKRMAVILSLEQGNRLREQYGLG
- stoichiometry N (AUC): 2

B2: 53BP1-Tudor (residues 1484-1603) (domain or fragment, human, UniProt Q12888 1484-1603, looked up)
chain: NSFVGLRVVAKWSSNGYFYSGKITRDVGAGKYKLLFDDGYECDVLGKDILLCDPIPLDTEVTALSEDEYFSAGVVKGHRKESGELYYSIEKEGQRKWYKRMAVILSLEQGNRLREQYGLG
- binding result [3]: binds
